T1: SIPA1L3, O60292
T1 sequence (O60292 961-1052, limits assumed, looked up): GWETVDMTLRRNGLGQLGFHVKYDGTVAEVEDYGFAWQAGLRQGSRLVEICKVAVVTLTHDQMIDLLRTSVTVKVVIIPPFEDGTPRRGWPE

T2: PDZD2_1, O15018
T2 sequence (O15018 80-192, limits assumed, looked up): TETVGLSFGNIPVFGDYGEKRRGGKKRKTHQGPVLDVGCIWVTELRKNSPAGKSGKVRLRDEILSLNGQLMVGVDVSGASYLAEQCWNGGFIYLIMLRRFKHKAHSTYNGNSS

T3: SHROOM2, Q13796
T3 sequence (Q13796 21-118, limits assumed, looked up): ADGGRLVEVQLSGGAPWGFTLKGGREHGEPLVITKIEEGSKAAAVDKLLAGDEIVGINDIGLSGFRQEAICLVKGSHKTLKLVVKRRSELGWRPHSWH

T4: GIPC1, O14908
T4 sequence (O14908 128-223, limits assumed, looked up): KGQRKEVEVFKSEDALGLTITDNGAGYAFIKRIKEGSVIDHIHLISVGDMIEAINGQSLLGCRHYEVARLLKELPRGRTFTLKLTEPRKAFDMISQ

T5: PDZD7_1, Q9H5P4
T5 sequence (Q9H5P4 81-178, limits assumed, looked up): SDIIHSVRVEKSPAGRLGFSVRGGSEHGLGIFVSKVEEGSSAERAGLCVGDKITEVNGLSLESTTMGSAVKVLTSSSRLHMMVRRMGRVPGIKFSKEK

T6: PDZRN3_2, Q9UPQ7
T6 sequence (Q9UPQ7 414-513, limits assumed, looked up): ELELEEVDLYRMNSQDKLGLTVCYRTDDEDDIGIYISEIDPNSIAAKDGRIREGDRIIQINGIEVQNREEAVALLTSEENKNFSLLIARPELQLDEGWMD

T7: PREX2_2, Q70Z35
T7 sequence (Q70Z35 672-764, limits assumed, looked up): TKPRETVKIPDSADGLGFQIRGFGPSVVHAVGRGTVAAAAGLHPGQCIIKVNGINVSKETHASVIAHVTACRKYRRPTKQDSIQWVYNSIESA

T8: USH1C_2, Q9Y6N9
T8 sequence (Q9Y6N9 206-303, limits assumed, looked up): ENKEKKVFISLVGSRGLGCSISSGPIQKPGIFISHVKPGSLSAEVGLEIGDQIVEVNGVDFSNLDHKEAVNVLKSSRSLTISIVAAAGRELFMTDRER

T9: DVL1, O14640
T9 sequence (O14640 246-333, limits assumed, looked up): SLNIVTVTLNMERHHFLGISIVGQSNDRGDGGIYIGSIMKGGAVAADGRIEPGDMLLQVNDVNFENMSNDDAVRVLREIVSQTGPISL

T10: PDLIM3, Q53GG5
T10 sequence (Q53GG5 1-94, limits assumed, looked up): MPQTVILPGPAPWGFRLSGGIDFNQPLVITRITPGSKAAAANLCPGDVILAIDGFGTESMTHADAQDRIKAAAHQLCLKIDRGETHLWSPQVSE

T11: TJP3_2, O95049
T11 sequence (O95049 190-282, limits assumed, looked up): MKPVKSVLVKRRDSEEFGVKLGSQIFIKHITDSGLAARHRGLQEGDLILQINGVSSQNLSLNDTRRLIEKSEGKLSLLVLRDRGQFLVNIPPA

T12: MPDZ_13, O75970
T12 sequence (O75970 1982-2070, limits assumed, looked up): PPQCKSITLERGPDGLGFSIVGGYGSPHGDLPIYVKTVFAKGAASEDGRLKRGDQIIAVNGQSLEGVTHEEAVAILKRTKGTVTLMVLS

T13: USH1C_3, Q9Y6N9
T13 sequence (Q9Y6N9 447-547, limits assumed, looked up): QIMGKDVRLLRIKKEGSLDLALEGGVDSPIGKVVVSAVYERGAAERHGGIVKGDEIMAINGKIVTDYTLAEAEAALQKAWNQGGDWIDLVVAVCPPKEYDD

T14: PDZD8, Q8NEN9
T14 sequence (Q8NEN9 361-459, limits assumed, looked up): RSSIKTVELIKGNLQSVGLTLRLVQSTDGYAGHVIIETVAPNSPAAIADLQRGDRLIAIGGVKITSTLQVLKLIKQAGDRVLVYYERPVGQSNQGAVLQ


Each binder was assayed against T1, SIPA1L3, O60292 (assay: holdup assay). Conditions: plain residues with an end cap or a label only (N-terminal biotin on a linker: ttds).
Parameters: key: below the threshold = too weak to quantify, mostly under pKd 3.1 to 4

pKd	Binder
below the threshold	RSLEEEESQL [GRASP, Q7Z6J2]
below the threshold	SVWLRKETRV [CYSLTR2, Q9NS75]
below the threshold	PKTPPTDTSV [KIR3DL3, Q8N743]

Each binder was assayed against AHNAK2, Q8IVF2 (assay: holdup assay). Conditions: plain residues with an end cap or a label only (N-terminal biotin on a linker: ttds).
Parameters: key: below the threshold = too weak to quantify, mostly under pKd 3.1 to 4

Chain of AHNAK2, Q8IVF2 (Q8IVF2 108-193): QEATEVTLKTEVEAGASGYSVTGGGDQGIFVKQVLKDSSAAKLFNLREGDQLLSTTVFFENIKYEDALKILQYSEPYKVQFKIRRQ

pKd	Binder
4.3	RSLEEEESQL [GRASP, Q7Z6J2]
below the threshold	SVWLRKETRV [CYSLTR2, Q9NS75]
below the threshold	PKTPPTDTSV [KIR3DL3, Q8N743]

The binders below were run against T2, PDZD2_1, O15018 (assay: holdup assay). Conditions: plain residues with an end cap or a label only (N-terminal biotin on a linker: ttds).
Parameters: key: below the threshold = too weak to quantify, mostly under pKd 3.1 to 4

pKd	Binder
below the threshold	RSLEEEESQL [GRASP, Q7Z6J2]
below the threshold	SVWLRKETRV [CYSLTR2, Q9NS75]
4.3	PKTPPTDTSV [KIR3DL3, Q8N743]

Each binder was assayed against GIPC3, Q8TF64 (assay: holdup assay). Conditions: plain residues with an end cap or a label only (N-terminal biotin on a linker: ttds).
Parameters: key: below the threshold = too weak to quantify, mostly under pKd 3.1 to 4

Chain of GIPC3, Q8TF64 (Q8TF64 107-202): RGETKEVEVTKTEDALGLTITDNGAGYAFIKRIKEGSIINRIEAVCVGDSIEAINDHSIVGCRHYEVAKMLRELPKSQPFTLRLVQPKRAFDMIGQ

pKd	Binder
below the threshold	RSLEEEESQL [GRASP, Q7Z6J2]
below the threshold	SVWLRKETRV [CYSLTR2, Q9NS75]
below the threshold	PKTPPTDTSV [KIR3DL3, Q8N743]

Each binder was assayed against T3, SHROOM2, Q13796 (assay: holdup assay). Conditions: plain residues with an end cap or a label only (N-terminal biotin on a linker: ttds).
Parameters: key: below the threshold = too weak to quantify, mostly under pKd 3.1 to 4

pKd	Binder
below the threshold	RSLEEEESQL [GRASP, Q7Z6J2]
4.35	SVWLRKETRV [CYSLTR2, Q9NS75]
below the threshold	PKTPPTDTSV [KIR3DL3, Q8N743]

These binders were tested against T4, GIPC1, O14908 (assay: holdup assay). Conditions: plain residues with an end cap or a label only (N-terminal biotin on a linker: ttds).
Parameters: key: below the threshold = too weak to quantify, mostly under pKd 3.1 to 4

pKd	Binder
4.1	RSLEEEESQL [GRASP, Q7Z6J2]
below the threshold	SVWLRKETRV [CYSLTR2, Q9NS75]
below the threshold	PKTPPTDTSV [KIR3DL3, Q8N743]

The binders below were run against T5, PDZD7_1, Q9H5P4 (assay: holdup assay). Conditions: plain residues with an end cap or a label only (N-terminal biotin on a linker: ttds).
Parameters: key: below the threshold = too weak to quantify, mostly under pKd 3.1 to 4

pKd	Binder
below the threshold	RSLEEEESQL [GRASP, Q7Z6J2]
below the threshold	SVWLRKETRV [CYSLTR2, Q9NS75]
below the threshold	PKTPPTDTSV [KIR3DL3, Q8N743]

Each binder was assayed against T6, PDZRN3_2, Q9UPQ7 (assay: holdup assay). Conditions: plain residues with an end cap or a label only (N-terminal biotin on a linker: ttds).
Parameters: key: below the threshold = too weak to quantify, mostly under pKd 3.1 to 4

pKd	Binder
below the threshold	RSLEEEESQL [GRASP, Q7Z6J2]
below the threshold	SVWLRKETRV [CYSLTR2, Q9NS75]
below the threshold	PKTPPTDTSV [KIR3DL3, Q8N743]

The binders below were run against T7, PREX2_2, Q70Z35 (assay: holdup assay). Conditions: plain residues with an end cap or a label only (N-terminal biotin on a linker: ttds).
Parameters: key: below the threshold = too weak to quantify, mostly under pKd 3.1 to 4

pKd	Binder
below the threshold	RSLEEEESQL [GRASP, Q7Z6J2]
below the threshold	SVWLRKETRV [CYSLTR2, Q9NS75]
below the threshold	PKTPPTDTSV [KIR3DL3, Q8N743]

Each binder was assayed against T8, USH1C_2, Q9Y6N9 (assay: holdup assay). Conditions: plain residues with an end cap or a label only (N-terminal biotin on a linker: ttds).
Parameters: key: below the threshold = too weak to quantify, mostly under pKd 3.1 to 4

pKd	Binder
below the threshold	RSLEEEESQL [GRASP, Q7Z6J2]
below the threshold	SVWLRKETRV [CYSLTR2, Q9NS75]
below the threshold	PKTPPTDTSV [KIR3DL3, Q8N743]

Each binder was assayed against T9, DVL1, O14640 (assay: holdup assay). Conditions: plain residues with an end cap or a label only (N-terminal biotin on a linker: ttds).
Parameters: key: below the threshold = too weak to quantify, mostly under pKd 3.1 to 4

pKd	Binder
below the threshold	RSLEEEESQL [GRASP, Q7Z6J2]
4.32	SVWLRKETRV [CYSLTR2, Q9NS75]
below the threshold	PKTPPTDTSV [KIR3DL3, Q8N743]

These binders were tested against PDZD9, Q8IXQ8 (assay: holdup assay). Conditions: plain residues with an end cap or a label only (N-terminal biotin on a linker: ttds).
Parameters: key: below the threshold = too weak to quantify, mostly under pKd 3.1 to 4

Chain of PDZD9, Q8IXQ8 (Q8IXQ8 23-120): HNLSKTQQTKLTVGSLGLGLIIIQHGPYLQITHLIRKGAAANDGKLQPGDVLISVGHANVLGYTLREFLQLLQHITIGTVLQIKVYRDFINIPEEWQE

pKd	Binder
below the threshold	RSLEEEESQL [GRASP, Q7Z6J2]
below the threshold	SVWLRKETRV [CYSLTR2, Q9NS75]
below the threshold	PKTPPTDTSV [KIR3DL3, Q8N743]

The binders below were run against T10, PDLIM3, Q53GG5 (assay: holdup assay). Conditions: plain residues with an end cap or a label only (N-terminal biotin on a linker: ttds).
Parameters: key: below the threshold = too weak to quantify, mostly under pKd 3.1 to 4

pKd	Binder
below the threshold	RSLEEEESQL [GRASP, Q7Z6J2]
below the threshold	SVWLRKETRV [CYSLTR2, Q9NS75]
below the threshold	PKTPPTDTSV [KIR3DL3, Q8N743]

These binders were tested against PARD3B_3, Q8TEW8 (assay: holdup assay). Conditions: plain residues with an end cap or a label only (N-terminal biotin on a linker: ttds).
Parameters: key: below the threshold = too weak to quantify, mostly under pKd 3.1 to 4

Chain of PARD3B_3, Q8TEW8 (Q8TEW8 490-594): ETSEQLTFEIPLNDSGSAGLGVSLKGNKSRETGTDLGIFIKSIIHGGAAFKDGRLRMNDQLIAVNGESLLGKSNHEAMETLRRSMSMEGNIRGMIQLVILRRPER

pKd	Binder
below the threshold	RSLEEEESQL [GRASP, Q7Z6J2]
below the threshold	SVWLRKETRV [CYSLTR2, Q9NS75]
below the threshold	PKTPPTDTSV [KIR3DL3, Q8N743]

What follows are binders tested against CARD14, Q9BXL6 (assay: holdup assay). Conditions: plain residues with an end cap or a label only (N-terminal biotin on a linker: ttds).
Parameters: key: below the threshold = too weak to quantify, mostly under pKd 3.1 to 4

Chain of CARD14, Q9BXL6 (Q9BXL6 558-663): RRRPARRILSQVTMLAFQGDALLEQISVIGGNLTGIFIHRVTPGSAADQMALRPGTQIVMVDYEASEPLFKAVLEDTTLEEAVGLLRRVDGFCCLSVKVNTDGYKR

pKd	Binder
below the threshold	RSLEEEESQL [GRASP, Q7Z6J2]
below the threshold	SVWLRKETRV [CYSLTR2, Q9NS75]
below the threshold	PKTPPTDTSV [KIR3DL3, Q8N743]

Each binder was assayed against T11, TJP3_2, O95049 (assay: holdup assay). Conditions: plain residues with an end cap or a label only (N-terminal biotin on a linker: ttds).
Parameters: key: below the threshold = too weak to quantify, mostly under pKd 3.1 to 4

pKd	Binder
below the threshold	RSLEEEESQL [GRASP, Q7Z6J2]
below the threshold	SVWLRKETRV [CYSLTR2, Q9NS75]
below the threshold	PKTPPTDTSV [KIR3DL3, Q8N743]

These binders were tested against PDZRN4_2, Q6ZMN7 (assay: holdup assay). Conditions: plain residues with an end cap or a label only (N-terminal biotin on a linker: ttds).
Parameters: key: below the threshold = too weak to quantify, mostly under pKd 3.1 to 4

Chain of PDZRN4_2, Q6ZMN7 (Q6ZMN7 389-498): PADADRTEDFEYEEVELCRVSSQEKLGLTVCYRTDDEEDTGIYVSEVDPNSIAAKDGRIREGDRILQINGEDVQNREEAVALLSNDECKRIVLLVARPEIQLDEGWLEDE

pKd	Binder
below the threshold	RSLEEEESQL [GRASP, Q7Z6J2]
below the threshold	SVWLRKETRV [CYSLTR2, Q9NS75]
below the threshold	PKTPPTDTSV [KIR3DL3, Q8N743]

Each binder was assayed against T12, MPDZ_13, O75970 (assay: holdup assay). Conditions: plain residues with an end cap or a label only (N-terminal biotin on a linker: ttds).
Parameters: key: below the threshold = too weak to quantify, mostly under pKd 3.1 to 4

pKd	Binder
below the threshold	RSLEEEESQL [GRASP, Q7Z6J2]
below the threshold	SVWLRKETRV [CYSLTR2, Q9NS75]
below the threshold	PKTPPTDTSV [KIR3DL3, Q8N743]

These binders were tested against T13, USH1C_3, Q9Y6N9 (assay: holdup assay). Conditions: plain residues with an end cap or a label only (N-terminal biotin on a linker: ttds).
Parameters: key: below the threshold = too weak to quantify, mostly under pKd 3.1 to 4

pKd	Binder
below the threshold	RSLEEEESQL [GRASP, Q7Z6J2]
below the threshold	SVWLRKETRV [CYSLTR2, Q9NS75]
below the threshold	PKTPPTDTSV [KIR3DL3, Q8N743]

Each binder was assayed against T14, PDZD8, Q8NEN9 (assay: holdup assay). Conditions: plain residues with an end cap or a label only (N-terminal biotin on a linker: ttds).
Parameters: key: below the threshold = too weak to quantify, mostly under pKd 3.1 to 4

pKd	Binder
below the threshold	RSLEEEESQL [GRASP, Q7Z6J2]
below the threshold	SVWLRKETRV [CYSLTR2, Q9NS75]
4.36	PKTPPTDTSV [KIR3DL3, Q8N743]

The binders below were run against LIMK1, P53667 (assay: holdup assay). Conditions: plain residues with an end cap or a label only (N-terminal biotin on a linker: ttds).
Parameters: key: below the threshold = too weak to quantify, mostly under pKd 3.1 to 4

Chain of LIMK1, P53667 (P53667 155-268): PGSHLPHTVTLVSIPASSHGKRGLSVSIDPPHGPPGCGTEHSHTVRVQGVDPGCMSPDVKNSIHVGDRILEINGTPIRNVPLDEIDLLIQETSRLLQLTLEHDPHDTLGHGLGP

pKd	Binder
4.27	RSLEEEESQL [GRASP, Q7Z6J2]
below the threshold	SVWLRKETRV [CYSLTR2, Q9NS75]
below the threshold	PKTPPTDTSV [KIR3DL3, Q8N743]

Each binder was assayed against DVL2, O14641 (assay: holdup assay). Conditions: plain residues with an end cap or a label only (N-terminal biotin on a linker: ttds).
Parameters: key: below the threshold = too weak to quantify, mostly under pKd 3.1 to 4

Chain of DVL2, O14641 (O14641 260-359): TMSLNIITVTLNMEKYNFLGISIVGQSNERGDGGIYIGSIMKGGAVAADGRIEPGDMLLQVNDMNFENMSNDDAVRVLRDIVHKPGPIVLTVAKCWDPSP

pKd	Binder
below the threshold	RSLEEEESQL [GRASP, Q7Z6J2]
below the threshold	SVWLRKETRV [CYSLTR2, Q9NS75]
below the threshold	PKTPPTDTSV [KIR3DL3, Q8N743]
